From patent US20150218594A1, “CELL-FREE AND MINIMIZED METABOLIC REACTION CASCADES FOR THE PRODUCTION OF CHEMICALS” (CLARIANT PRODUKTE (DEUTSCHLAND) GMBH, priority 2012, published 2015)
Changes are numbered by the printed parent chain. Names may count otherwise.

B1: S405C: optimized Thermoplasma acidophilum aldehyde dehydrogenase with the mutation of S405C (protein)
chain: MDTKLYIDGQWVNSSSGKTVDKYSPVTGQVIGRFEAATRDDVDRAIDAAEDAFWAWNDLGSVERSKIIYRAKELIEKNRAELENIIMEENGKPVKEAKEEVDGVIDQIQYYAEWARKLNGEVVEGTSSHRKIFQYKVPYGIVVALTPWNFPAGMVARKLAPALLTGNTVVLKPSSDTPGSAEWIVRKFVEAGVPKGVLNFITGRGSEIGDYIVEHKKVNLITMTGSTATGQRIMQKASANMAKLILELGGKAPFMVWKDADMDNALKTLLWAKYWNAGQSCIAAERLYVHEDIYDTFMSRFVELSRKLALGDPKNADMGPLINKGALQATSEIVEEAKESGAKILFGGSQPSLSGPYRNGYFFLPTIIGNADQKSKIFQEEIFAPVIGARKISSVEEMYDLANDCKYGLASYLFTKDPNIIFEASERIRFGELYVNMPGPEASQGYHTGFRMTGQAGEGSKYGISEYLKLKNIYVDYSGKPLHINTVRDDLFQSGRPVLGSSHHHHHH
modifications: TaALDH-S405C-Chis
B2: F34L S405C: optimized Thermoplasma acidophilum aldehyde dehydrogenase with the mutations F34L and S405C (protein)
chain: B1 chain with F34L
modifications: TaALDH-F34L-S405C-Chis
B3: F34M S405N: optimized Thermoplasma acidophilum aldehyde dehydrogenase with the mutations F34M and S405N (protein)
chain: B1 chain with F34M, C405N
modifications: TaALDH-F34M-S405N-Chis
B4: F34M W271S S405N: TaALDH variant with the mutations F34M, W271S and S405N; no SEQ ID printed (protein)
chain: B1 chain with F34M, W271S, C405N
B5: F34M W271S Y399C S405N: optimized Thermoplasma acidophilum aldehyde dehydrogenase with the mutations F34M, W271S, Y399C and S405N (protein)
chain: B1 chain with F34M, W271S, Y399C, C405N
modifications: TaALDH-F34M-W271S-Y399C-S405N-Chis
B6: W271S: optimized Thermoplasma acidophilum aldehyde dehydrogenase with the mutation of W271S (protein)
chain: B1 chain with W271S, C405S
modifications: TaALDH-W271S-Chis
B7: Y399R: optimized Thermoplasma acidophilum aldehyde dehydrogenase with the mutation of Y399R (protein)
chain: B1 chain with Y399R, C405S
modifications: TaALDH-Y399R-Chis
B8: F34L: optimized Thermoplasma acidophilum aldehyde dehydrogenase with the mutation of F34L (protein)
chain: B1 chain with F34L, C405S
modifications: taALDH-F34L-Chis

Assay: Activity in solvents of Ta-ALDH variants (3 % isobutanol)
Format: biochemical
Settings: 3 % isobutanol, 2 mM NAD, 50° C., pH 7
Procedure: (§1) Colonies of E. coli BL21 (DE3) containing Ta-ALDH library were transferred into 96-deepwell plates (Gainer BioOne) containing Zym5052 autoinduction medium (Protein Expression and Purification, 2005. 41(1): p. 207-234). Cultures were grown over night at 37° C., 1000 rpm. Cells were harvested by centrifugation at 5000 g at 2° C. for 2 min and lysed with B-Per® protein extraction reagent (Thermo Fisher Scentific, Rockford, USA). After incubation for 60 min at 50° C., insoluble cell debris and was removed by centrifugation at 5000 g at 20° C. for 30 min. Supernatants containing variants of TaALDH were tested for relative activity under standard conditions: 2 mM NAD, 1 mM D-glyceraldehyde in 50 mM HEPES (pH 7) at 50° C. After 20 min NADH formation was detected spectrophotometrically at 340 nm.
Activity in solvents of Ta-ALDH variants was tested under standard assay conditions containing additional solvent. After 20 min NADH formation was detected and compared to relative activity.
(§2) The values “relative to wt” are the mU/mL values normalized to the wildtype control value.

Row | Molecule | 3 % isobutanol, 2 mM NAD (mU/mL)
1 | B1 | 12.65
2 | B2 | 8.17
3 | B3 | 15.62
4 | B4 | 43.86
5 | B5 | 1.3
6 | B6 | 20.8
7 | B7 | 2.16
8 | B8 | 4.08

Same assay, conditions: 3 % isobutanol, 2 mM NAD; normalized to the wildtype control value

Row | Molecule | relative to wt
9 | B1 | 7.9
10 | B2 | 5.1
11 | B3 | 9.8
12 | B4 | 27.5
13 | B5 | 0.8
14 | B6 | 13
15 | B7 | 1.4
16 | B8 | 2.6

Same assay, conditions: stability in 3 % isobutanol relative to wildtype

Row | Molecule | Stab. rel to wt
17 | B1 | 1.2
18 | B2 | 1.0
19 | B3 | 1.1
20 | B4 | 0.6
21 | B5 | 0.8
22 | B6 | 0.6
23 | B7 | 1
24 | B8 | 0.8

Assay: Cofactor acceptance of Ta-ALDH variants (10 mM NAD)
Format: biochemical
Settings: 10 mM NAD, 1 mM D-glyceraldehyde, 50° C., pH 7
Procedure: as §1
Change in cofactor acceptance of Ta-ALDH variants was tested under standard assay conditions but with 10 mM NAD. After 20 min NADH formation was detected and compared to relative activity.
as §2

Row | Molecule | 10 mM NAD (mU/mL)
25 | B1 | 66.82
26 | B2 | 46.83
27 | B3 | 74.31
28 | B4 | 279.58
29 | B5 | 8.08
30 | B6 | 181.89
31 | B7 | 11.56
32 | B8 | 31.72

Same assay, conditions: 10 mM NAD; normalized to the wildtype control value

Row | Molecule | relative to wt
33 | B1 | 5.6
34 | B2 | 3.9
35 | B3 | 6.2
36 | B4 | 23.5
37 | B5 | 0.7
38 | B6 | 15.3
39 | B7 | 1.0
40 | B8 | 2.7

Same assay, conditions: ratio of activity at 10 mM NAD to 2 mM NAD

Row | Molecule | 10 mM NAD /2 mM NAD
41 | B1 | 0.8
42 | B2 | 0.7
43 | B3 | 0.7
44 | B4 | 0.5
45 | B5 | 0.7
46 | B6 | 0.8
47 | B7 | 0.7
48 | B8 | 0.8

Assay: Determination of specific activity of purified TaALDH variants
Format: biochemical
Settings: purified enzyme, 1 mM D-Glyceraldehyde, 50° C., pH 7
Excerpt: The Ta-aldh gene was cloned in pCBR-Chis expression vector as described above. Mutations F34L, F34M, Y399C, S405C and S405N were inserted into Ta-aldh gene by Quickchange PCR as described above. For recombinant expression, E. coli BL21 (DE3) was transformed with pCBR-Ta-aldh-Chis, pCBR-Ta-aldh-f34I-s405c-Chis, pCBR-Ta-aldh-f34m-s405n-Chis or pCBR-Ta-aldh-f34m-y399c-s405n-Chis. Each of the four variants was produced using the following protocol:
Large amounts of a TaALDH-Variant were produced with fed-batch fermentation in a 40 L Biostat Cplus bioreactor (Sartorius Stedim, Goettingen, Germany). Defined media was supplemented with 30 μg/ml kanamycin. After inoculation cells were grown at 30° C. for 24 h and induced with 0.3 mM IPTG. Enzyme expression was performed at 30° C. for 3 h. One fermentation produced 300 g cells (wet weight). Cells were harvested and lysed with Basic-Z Cell Disruptor (Constant Systems, Northants, UK) in loading buffer (200 mM NaCl; 20 mM Imidazol; 2.5 mM MgCl2; 50 mM NaPi, pH 6.2). After heat treatment at 50° C. for 30 min, cell debris and protein aggregates were separated from soluble fraction by centrifugation at 30,000 g at 20° C. for 30 min (Sorvall RC6+, SS-34 rotor, Thermo Scientific).
Soluble fraction of His-tagged TaALDH-Variant was further purified by Ni-NTA chromatography using ÄKTA UPC-900 FPLC-system (GE Healthcare, Freiburg, Germany). Supernatant was loaded on HiTrap FF-column and washed with two column volumes of loading buffer. Highly purified and concentrated TaALDH was fractioned after elution in imidazole buffer (200 mM NaCl; 500 mM imidazol; 50 mM NaPi, pH 6.2). Buffer was changed to 20 mM (NH4)HCO3 with HiPrep 26/10 Desalting column and TaALDH was lyophilized with an Alpha 2-4 LD Plus freeze dryer (Martin Christ GmbH, Osterode am Harz, Germany).
TaALDH activity was determined spectrophotometrically at 50° C. by measuring the rate of cofactor reduction at 340 nm in flat bottom microtiter plates (Grainer BioOne) with a Fluorostar Omega Photometer (BMG Labtech GmbH, Ortenberg, Germany). One unit of activity was defined as reduction of 1 μmol of cofactor per minute.

Row | Molecule | specific activity (U/mg) at 2 mM NAD [U/mg]
49 | B2 | 1
50 | B3 | 1.2

Assay: Screening of TaALDH variants, relative activity under standard conditions (2 mM NAD)
Format: biochemical
Settings: 1 mM D-glyceraldehyde, 50° C., pH 7, lysate supernatant
Procedure: as §1, §2

Row | Molecule | 2 mM NAD (mU/mL)
51 | B1 | 19.29
52 | B2 | 15.23
53 | B3 | 25.87
54 | B4 | 125.38
55 | B5 | 3
56 | B6 | 58.35
57 | B7 | 3.76
58 | B8 | 9.09

Same assay, conditions: mU/mL values normalized to the wildtype control value

Row | Molecule | relative to wt
59 | B1 | 6.7
60 | B2 | 5.3
61 | B3 | 9.0
62 | B4 | 43.4
63 | B5 | 1.0
64 | B6 | 20.2
65 | B7 | 1.3
66 | B8 | 3.1
